The target of series [1] is EGFR (on U87MG EGFR WT glioblastoma cells) (UniProt P00533). Put plainly: flow cytometry. The settings on record: U87 EGFR WT cells, 1 nM-5 µM aptamer; no/low signal on EGFR-negative LN319 cells; 2'-fluoro pyrimidines (2'F-RNA); Flow cytometry: 300,000 cells detached with 0.2 M EDTA, 30 min with Cy5-aptamer; tissue: selection buffer, 2% BSA +/- 100 µg/mL yeast tRNA block, 1 h on ice …. (In general: A flow cytometer gives signals particle by particle.)

In series [2] the target is integrin α5β1 (on U87MG α5+ cells) (UniProt P08648+P05556). Put plainly: flow cytometry. The note with it: 2'-fluoro pyrimidines (2'F-RNA); Flow cytometry: 300,000 cells detached with 0.2 M EDTA, 30 min with Cy5-aptamer; tissue: selection buffer, 2% BSA +/- 100 µg/mL yeast tRNA block, 1 h on ice …; cited from earlier work.

The term pKd denotes the Kd on a negative log10 scale, so that one unit is a factor of ten.

pKd: −log10 of the molar value.

Chain of integrin α5β1 (on U87MG α5+ cells) (P08648 42-1049, chain 1 of 2): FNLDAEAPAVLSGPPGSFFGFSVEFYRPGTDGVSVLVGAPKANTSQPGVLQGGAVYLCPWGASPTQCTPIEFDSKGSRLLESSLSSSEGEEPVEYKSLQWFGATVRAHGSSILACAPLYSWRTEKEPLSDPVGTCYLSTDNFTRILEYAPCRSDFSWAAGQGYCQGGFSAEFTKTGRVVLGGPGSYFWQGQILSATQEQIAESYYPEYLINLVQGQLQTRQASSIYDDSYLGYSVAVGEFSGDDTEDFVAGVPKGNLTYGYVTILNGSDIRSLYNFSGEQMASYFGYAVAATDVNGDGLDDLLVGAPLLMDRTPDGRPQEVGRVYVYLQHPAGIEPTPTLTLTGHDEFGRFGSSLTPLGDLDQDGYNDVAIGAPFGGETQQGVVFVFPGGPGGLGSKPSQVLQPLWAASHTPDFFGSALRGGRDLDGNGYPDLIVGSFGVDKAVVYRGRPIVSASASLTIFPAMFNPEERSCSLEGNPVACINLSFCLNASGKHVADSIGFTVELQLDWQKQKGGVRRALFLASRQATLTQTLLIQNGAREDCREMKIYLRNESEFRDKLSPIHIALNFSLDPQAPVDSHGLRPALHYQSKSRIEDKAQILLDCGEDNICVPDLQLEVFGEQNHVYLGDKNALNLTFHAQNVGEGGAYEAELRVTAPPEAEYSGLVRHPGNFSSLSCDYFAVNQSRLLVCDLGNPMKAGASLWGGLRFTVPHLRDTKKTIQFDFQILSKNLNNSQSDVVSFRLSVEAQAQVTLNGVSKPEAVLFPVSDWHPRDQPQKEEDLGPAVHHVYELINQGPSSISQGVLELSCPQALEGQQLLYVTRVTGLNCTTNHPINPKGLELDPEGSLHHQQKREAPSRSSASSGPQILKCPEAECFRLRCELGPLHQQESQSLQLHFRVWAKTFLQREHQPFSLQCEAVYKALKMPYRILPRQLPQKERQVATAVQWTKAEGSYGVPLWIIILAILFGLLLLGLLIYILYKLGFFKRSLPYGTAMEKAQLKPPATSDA
Chain of integrin α5β1 (on U87MG α5+ cells) (P05556 21-798, chain 2 of 2): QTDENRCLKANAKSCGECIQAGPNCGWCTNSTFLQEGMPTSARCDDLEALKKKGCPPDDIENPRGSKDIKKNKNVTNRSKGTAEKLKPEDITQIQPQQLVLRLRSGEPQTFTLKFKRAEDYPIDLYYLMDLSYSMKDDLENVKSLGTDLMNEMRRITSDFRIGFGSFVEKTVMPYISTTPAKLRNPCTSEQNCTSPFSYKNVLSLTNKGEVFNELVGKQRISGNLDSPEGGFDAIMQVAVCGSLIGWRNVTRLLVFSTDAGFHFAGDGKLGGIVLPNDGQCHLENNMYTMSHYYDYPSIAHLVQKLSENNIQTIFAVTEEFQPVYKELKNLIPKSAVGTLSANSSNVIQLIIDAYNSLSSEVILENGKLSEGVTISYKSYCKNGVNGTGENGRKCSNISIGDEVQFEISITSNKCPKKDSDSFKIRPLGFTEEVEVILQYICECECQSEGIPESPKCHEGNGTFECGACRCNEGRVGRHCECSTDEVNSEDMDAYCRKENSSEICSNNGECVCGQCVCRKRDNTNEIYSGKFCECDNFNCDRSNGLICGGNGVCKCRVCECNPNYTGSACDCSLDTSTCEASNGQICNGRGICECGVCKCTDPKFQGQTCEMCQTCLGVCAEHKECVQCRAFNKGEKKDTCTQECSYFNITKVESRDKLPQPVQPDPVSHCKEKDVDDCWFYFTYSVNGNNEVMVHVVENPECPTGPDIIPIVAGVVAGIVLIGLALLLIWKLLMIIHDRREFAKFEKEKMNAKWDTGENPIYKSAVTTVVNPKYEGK

For the sequence “GGACGGAUUUAAUCGCCGUAGAAAAGCAUGUCAAAGCCGGAACCGUCC [E07-Cy5]”, the pKd in series [1] is 6.68.
Consider “GGUUACCAGCCUUCACUGCGGACGGACAGAGAGUGCAACCUGCCGUGCCGCACCACGGUCGGUCACAC [H02-Cy5]”, for which the pKd in series [2] was 6.56.

Source of the values: paper PMC9609998.
